Bounds are passed on as bounds.

For the test, the target named is CCR7-FKBP (DmrA) receptor chimaera, CCR7-M.

“CXCR4-FRB (DmrC) receptor chimaera, CXCR4-H” yielded a Matrigel transwell invasion of co-transfected MDA-MB-231 cells with ACH (AP21967), towards CCL19 and CXCL12 together of more than 50%.

The values above are taken from publication PMC8538406.
